In patent publication US20050144671A1 (ARIZONA BD OF REGENTS BEHALF OF UNIV OF ARIZONA, published 2005):

Target: T1, S-tag-ABI2 (full-length ABI2 cloned in pCITE4a, in vitro translated) (UniProt O04719 1-423)
T1 construct: also called S-tagged ABI2; not shown: S-tag encoded by pCITE4a
T1 sequence (looked up): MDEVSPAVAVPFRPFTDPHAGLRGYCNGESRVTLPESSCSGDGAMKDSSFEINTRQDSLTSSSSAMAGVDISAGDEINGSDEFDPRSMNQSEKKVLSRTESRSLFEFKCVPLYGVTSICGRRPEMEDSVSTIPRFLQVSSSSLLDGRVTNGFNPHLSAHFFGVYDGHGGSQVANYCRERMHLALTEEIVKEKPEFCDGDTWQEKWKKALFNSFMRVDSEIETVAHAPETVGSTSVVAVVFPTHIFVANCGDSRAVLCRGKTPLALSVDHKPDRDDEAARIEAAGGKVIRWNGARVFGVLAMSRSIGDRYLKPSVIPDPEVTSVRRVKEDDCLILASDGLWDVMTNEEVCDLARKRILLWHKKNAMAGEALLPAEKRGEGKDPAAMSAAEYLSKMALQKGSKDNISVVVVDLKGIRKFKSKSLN
Experiment: in vitro S-tag pull-down of 35S-labeled Snow1
Method: In-vitro pull down assay: In-vitro pull-down assays were conducted to confirm the physical interaction of Snow1 and Ice1. Full-length snow1 cloned in pGEM-T easy and AtMyb79 (cloned in EcoR I and Xho I sites of pBCSK Stratagene) were used. Full-length Ice1 and ABI2 were cloned in EcoRI/SalI and NcoI/EcoRI sites of pCITE4a. 2 μg each of the linearized plasmid were in vitro transcribed using Megascript T7 RNA polymerase kit (Ambion). 10 μg of the purified transcript of snow1 and AtMyb79 were in vitro translated using Flexi Rabbit Reticulocyte system (Promega) in presence of ³⁵S-methionine. S-tag-Ice1 and S-tag-ABI2 transcripts were translated in absence of ³⁵S-methionine and their proteins were purified using S-tag purification kit (Novagen) as per the manufacturer's instructions. S-Tag Ice1 and S-tag ABI2 bound on the S-Tag slurry were used to pull down ³⁵S-labeled proteins. In another experiment ³⁵S-labeled S-tag Ice was produced and was used for pull-down using either GST-Snow1 or GST-Myb79 proteins. Pull-down assays were conducted as described (Haftler et al 2000).

B1: 35S-labeled Snow1 (full-length snow1 in pGEM-T easy, in vitro transcribed and translated) (other)
chain: MGRAPCCEKMGLKRGPWTPEEDQILVSFILNHGHSNWRALPKQAGLLRCGKSCRLRWMNYLKPDIKRGNFTKEEEDAIISLHQILGNRWSAIAAKLPGRTDNEIKNVWHTHLKKRLEDYQPAKPKTSNKKKGTKPKSESVITSSNSTRSESELADSSNPSGESLFSTSPSTSEVSSMTLISHDGYSNEINMDNKPGDISTIDQECVSFETFGADIDESFWKETLYSQDEHNYVSNDLEVAGLVEIQQEFQNLGSANNEMIFDSEMELLVRCIGICE
modifications: 35S-methionine label
binding result: no binding
